Assay results reported in US20240084003A1 (SIMCERE ZAIMING PHARMACEUTICAL, published 2024).

T1: human CD22 domain5-7-His (human, UniProt P20273 414-687)
T1 construct: also called hCD22 domain5-7-His; not shown: His tag
T1 sequence: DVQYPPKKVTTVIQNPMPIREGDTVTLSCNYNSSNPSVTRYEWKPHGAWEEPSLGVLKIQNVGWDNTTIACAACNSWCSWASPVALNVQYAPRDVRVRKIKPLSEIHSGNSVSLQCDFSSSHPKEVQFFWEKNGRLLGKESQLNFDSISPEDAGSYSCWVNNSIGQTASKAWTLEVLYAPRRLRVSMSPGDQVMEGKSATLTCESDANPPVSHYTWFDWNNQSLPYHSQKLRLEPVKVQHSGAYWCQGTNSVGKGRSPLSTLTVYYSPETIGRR

T2: human CD22-ECD-His protein (human, UniProt P20273 20-687)
T2 construct: Made in house in HEK293E; also called hCD22-ECD-His; recombinant human CD22-ECD His protein; not shown: His tag
T2 sequence: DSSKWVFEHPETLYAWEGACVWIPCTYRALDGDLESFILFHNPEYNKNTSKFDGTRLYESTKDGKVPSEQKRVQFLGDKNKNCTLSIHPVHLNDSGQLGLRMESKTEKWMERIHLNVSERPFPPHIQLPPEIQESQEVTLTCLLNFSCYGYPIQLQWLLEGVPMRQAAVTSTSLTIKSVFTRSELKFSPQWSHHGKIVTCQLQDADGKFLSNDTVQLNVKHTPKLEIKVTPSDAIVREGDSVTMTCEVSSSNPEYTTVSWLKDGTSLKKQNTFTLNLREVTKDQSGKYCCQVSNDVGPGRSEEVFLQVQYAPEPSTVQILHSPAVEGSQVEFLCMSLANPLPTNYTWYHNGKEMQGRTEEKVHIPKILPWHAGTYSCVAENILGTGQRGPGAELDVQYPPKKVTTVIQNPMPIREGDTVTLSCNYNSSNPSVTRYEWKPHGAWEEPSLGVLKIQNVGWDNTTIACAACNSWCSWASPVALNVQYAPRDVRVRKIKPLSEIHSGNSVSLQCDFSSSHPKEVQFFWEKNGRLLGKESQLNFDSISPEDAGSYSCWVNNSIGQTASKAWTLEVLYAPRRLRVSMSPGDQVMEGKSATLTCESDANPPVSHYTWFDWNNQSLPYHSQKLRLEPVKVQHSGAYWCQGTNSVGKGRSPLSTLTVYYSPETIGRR


Assays:
human CD22 domain5-7-His = target: T1, human CD22 domain5-7-His; test: ELISA, human CD22 domain5-7-His coated
[1] = target: T2, human CD22-ECD-His protein; test: ELISA, Ab 0.00001 nM
In short: (§1)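 Plates coated overnight at 4 °C with 2 μg/mL CD22-ECD-His and blocked with 2% BSA in PBS. Chimeric antibody bound at 37 °C for 2 h, followed by HRP-labeled secondary antibody at 37 °C for 2 h. TMB read-out developed 30 min at room temperature and stopped with 1.0 N HCl.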

[2] = target: T2, human CD22-ECD-His protein; test: ELISA, Ab 0.01 nM
In short: as §1

[3] = target: T2, human CD22-ECD-His protein; test: ELISA, Ab 10.00 nM
In short: as §1

[4] = target: T2, human CD22-ECD-His protein; test: ELISA, Ab 0.0001 nM
In short: as §1

| binding result (human CD22 domain5-7-His) | OD450 [1] | OD450 [2] | OD450 [3] | OD450 [4] | EC50 (read off the curve) (human CD22 domain5-7-His) | Binder |
| --- | --- | --- | --- | --- | --- | --- |
| no binding (tested: 100 nM) | 0.22 OD450 | 1.7 OD450 | 2 OD450 | 0.32 OD450 |  | F2.104.10 (antibody, human IgG1, lambda, V domains shown, Human-murine chimeric IgG1, lambda) VH: EVQLVESGGGFVKPGGSLKLSCAASGFTFSDYGMNWFRQAPEKGLEWVAYISRGSHTIYYADTVKGRFTISRDNAENTLFLQMTSLRSNDTAMYYCVRMAGYYAMDYWGQGTSLTVSS VL: QLVLTQSSSASFSLGASAKLTCTLSSQHSSYIIEWYQQQPLKPPKYVMEVKKDGSHSTGDGIPDRFSGSSSGADRYLSISNIQSEDEAIYICGVGDTIKEQFVYVFGGGTKVTVLG |
|  | 0.09 OD450 | 1.75 OD450 | 2.55 OD450 | 0.13 OD450 | ~0.1 nM | F1.60.9 (antibody, human IgG1, kappa, V domains shown, Human-murine chimeric IgG1, kappa) VH: QVQLKESGPGLVAPSQSLSITCTVSGLSLNNYGVSWVRQPPGKGLEWLGVIWGDGSTNYHSALISRLSISKDNSKSQVFLKLNSLHTDDTATYYCAINWGDYWGQGTTLIVSS VL: DIKMTQSPSSMNASLGERVTITCKASQDINSYLSWFQQKPGKSPKILIYRANRLIDGVPSRFSGSGSGQDYSLTISSLEYEDMGIYYCLQYGVFPLTFGAGTKLELKR |

The next lines start with the binder.

| Binder | binding result (human CD22 domain5-7-His) | OD450 [1] | OD450 [2] | OD450 [3] | OD450 [4] | EC50 (read off the curve) (human CD22 domain5-7-His) |
| --- | --- | --- | --- | --- | --- | --- |
| F2.70.2 (antibody, human IgG1, lambda, V domains shown, Human-murine chimeric IgG1, lambda) VH: EVQLVESGGGLVKPGGSLKLSCAASGFTFSDYGMNWFRQAPEKGLEWVAYISRGSHTIYYADTVKGRFTISRDNAKNTLFLQMTSLRSNDTAMYYCVRMAGYYAMDYWGQGTSVTVSS VL: QLVLTQSSSASFSLGASAKLTCTLSSQHSSYIIEWYQQQPLKPPKYVMELKKDGSHSTGDGIPDRFSGSSSGADRYLSISNIQPEDEAIYICGVGDTIKEQFVYVFGGGTKVTVLG | no binding (tested: 100 nM) | 0.09 OD450 | 1.56 OD450 | 2.03 OD450 | 0.18 OD450 |  |
| F2.343.16 (antibody, human IgG1, lambda, V domains shown, Human-murine chimeric IgG1, lambda) VH: QVQLKQSGPGLVQPSQSLSITCTVSGFSLTGYGVQWVRQSPGKGLEWLGVIWGGGGTDYNAAFISRLNIIKDNSKSQVFFKMNSLQADDTAIYYCARYSKYGHFDVWGTGTAVTVSS VL: QAVVTQESALTTSPGETVTLTCRSSTGAVTTSNYANWVQEKPDHLFTGLIGGTYNRVPGVPARFSGSLIGDKAALTITGAQTEDEAIYFCALWYSNHFWVFGGGTKLTVLG | no binding (tested: 100 nM) | 0.18 OD450 | 1.29 OD450 | 1.84 OD450 | 0.25 OD450 |  |
